In US20230242675A1 (SHANGHAI EPIMAB BIOTHERAPEUTICS, published 2023):
Changes are numbered by the printed parent chain. In names and notes the source's numbering stands.

B1: HuEM0005-90-5 (antibody, human IgG1, V domains shown)
VH: EVQLVQSGAEVKKPGASVKVSCKASGYTFTSHSINWVRQATGQGLEWMGYMYIGNGYTEYNEKFKGRVTLTSNTSISTAYMELSSLRSEDTAVYYCAKITPVVAPYVMDYWGQGTSVTVSS
VL: DIQMTQSPSFLSASVGDRVTITCKASQDVGTAVAWYQQKPGKAPKLLIYWASTRHTGVPSRFSGSGSGTEFTLTISSLQPEDFATYYCQQYSSYPYTFGQGTKLEIK
B2: HuEM0005-90-4 (antibody, human IgG1, V domains shown)
VH: B1 VH with A24T, M48I, V68A
VL: B1 VL with M4L
B3: HuEM0005-90-1 (antibody, human IgG1, V domains shown)
VH: B1 VH
VL: B1 VL with M4L
notes: measured without the G55A change
B4: HuEM0005-90-3 (antibody, human IgG1, V domains shown)
VH: B1 VH with A24T, L70M
VL: B1 VL with M4L
B5: HuEM0005-90-6 (antibody, human IgG1, V domains shown)
VH: B1 VH with M48I, V68A
VL: B1 VL
B6: HuEM0005-90-2 (antibody, human IgG1, V domains shown)
VH: B1 VH with M48I, V68A
VL: B1 VL with M4L
B7: HuEM0005-87-1 (antibody, human IgG1, V domains shown)
VH: EVQLVQSGAEVKKPGASVKVSCKASGYTFTDYYINWVRQAPGQGLEWMGETIPNTGGTTYNQKFKARVTMTVDTSTSTVYMELSSLRSEDTAVYYCARYQSGSPFAYWGQGTTVTVSS
VL: DIVMTQSPDSLAVSLGERATINCKASQNVGTAVAWYQQKPGQPPKLLIYSASNRYTGVPDRFTGSGSGTDFTLTISSLQAEDVAVYYCQQHYSTPYTFGGGTKLEIK
notes: also called HuEM0005-87-l
B8: HuEM0005-87-2 (antibody, human IgG1, V domains shown)
VH: B7 VH with M70L
VL: B7 VL
B9: HuEM0005-87-4 (antibody, human IgG1, V domains shown)
VH: B7 VH with T28S, M48I, R67K, V68A, M70L, T74K, V79A
VL: B7 VL
B10: HuEM0005-87-5 (antibody, human IgG1, V domains shown)
VH: B7 VH with T28S, R38K, M48I, R67K, V68A, M70L, V72R, T74K, V79A, S84K
VL: B7 VL
B11: HuEM0005-87-6 (antibody, human IgG1, V domains shown)
VH: B7 VH
VL: EIVMTQSPATLSVSPGERATLSCKASQNVGTAVAWYQQKPGQAPRLLIYSASNRYTGIPARFSGSGSGTEFTLTISSLQSEDFAVYYCQQHYSTPYTFGGGTKLEIK
B12: HuEM0005-87-3 (antibody, human IgG1, V domains shown)
VH: B7 VH with M48I, M70L, T74K
VL: B7 VL
B13: HuEM0005-90-10 (antibody, human IgG1, V domains shown)
VH: B1 VH with M48I, V68A
VL: B1 VL with Q3V, E70D
B14: HuEM0005-90-7 (antibody, human IgG1, V domains shown)
VH: B1 VH with A24T, L70M
VL: B1 VL
B15: HuEM0005-90-8 (antibody, human IgG1, V domains shown)
VH: B1 VH with A24T, M48I, V68A
VL: B1 VL
B16: HuEM0005-90-9 (antibody, human IgG1, V domains shown)
VH: B1 VH
VL: B1 VL with Q3V, E70D
B17: HuEM0005-90-11 (antibody, human IgG1, V domains shown)
VH: B1 VH with A24T, L70M
VL: B1 VL with Q3V, E70D
B18: HuEM0005-90-12 (antibody, human IgG1, V domains shown)
VH: B1 VH with A24T, M48I, V68A
VL: B1 VL with Q3V, E70D
B19: HuEM0005-87-10 (antibody, human IgG1, V domains shown)
VH: B7 VH with T28S, R38K, M48I, R67K, V68A, M70L, V72R, T74K, V79A, S84K
VL: B11 VL
B20: HuEM0005-87-8 (antibody, human IgG1, V domains shown)
VH: B7 VH with M48I, M70L, T74K
VL: B11 VL
B21: HuEM0005-87-7 (antibody, human IgG1, V domains shown)
VH: B7 VH with M70L
VL: B11 VL
B22: HuEM0005-87-12 (antibody, human IgG1, V domains shown)
VH: B7 VH with M70L
VL: B11 VL with I58V
B23: HuEM0005-87-9 (antibody, human IgG1, V domains shown)
VH: B7 VH with T28S, M48I, R67K, V68A, M70L, T74K, V79A
VL: B11 VL
B24: HuEM0005-87-11 (antibody, human IgG1, V domains shown)
VH: B7 VH
VL: B11 VL with I58V
notes: also called HuEM0005-87-l l
B25: HuEM0005-87-18 (antibody, human IgG1, V domains shown)
VH: B7 VH with M48I, M70L, T74K
VL: B11 VL with I58V, A60D, S63T
B26: HuEM0005-87-17 (antibody, human IgG1, V domains shown)
VH: B7 VH with M70L
VL: B11 VL with I58V, A60D, S63T
B27: HuEM0005-87-15 (antibody, human IgG1, V domains shown)
VH: B7 VH with T28S, R38K, M48I, R67K, V68A, M70L, V72R, T74K, V79A, S84K
VL: B11 VL with I58V
B28: HuEM0005-87-14 (antibody, human IgG1, V domains shown)
VH: B7 VH with T28S, M48I, R67K, V68A, M70L, T74K, V79A
VL: B11 VL with I58V
B29: HuEM0005-87-16 (antibody, human IgG1, V domains shown)
VH: B7 VH
VL: B11 VL with I58V, A60D, S63T
B30: HuEM0005-87-13 (antibody, human IgG1, V domains shown)
VH: B7 VH with M48I, M70L, T74K
VL: B11 VL with I58V

Each binder was assayed against T1, human PD-L1/His fusion protein (human, UniProt Q9NZQ7 19-239) (assay: BLI off-rate; test group 1).
Procedure: (§1) Briefly, antibodies were characterized for affinities and binding kinetics by Octet®RED96 biolayer interferometry (Pall ForteBio LLC). Antibodies were captured by Anti-hIgG Fc Capture (AHC) Biosensors (Pall) at a concentration of 100 nM for 30 seconds. Sensors were then dipped into running buffer (1×pH 7.2 PBS, 0.05% Tween 20, 0.1% BSA) for 60 seconds to check baseline. Binding was measured by dipping sensors into a single concentration of recombinant human PD-L1/His fusion protein (Novoprotein). Dissociation was followed by dipping sensors into running buffer for 1200 seconds. The association and dissociation curves were fitted to a 1:1 Langmuir binding model using ForteBio Data Analysis software (Pall). […] The off-rate ratio serves as a data normalization. Accordingly, in each test group, the off-rate ratios of the humanized antibodies can be compared with that of the chimeric antibody, and the off-rate ratios of each of the humanized antibodies can be compared to one another within all test groups.

T1 sequence (Q9NZQ7 19-239 limits assumed): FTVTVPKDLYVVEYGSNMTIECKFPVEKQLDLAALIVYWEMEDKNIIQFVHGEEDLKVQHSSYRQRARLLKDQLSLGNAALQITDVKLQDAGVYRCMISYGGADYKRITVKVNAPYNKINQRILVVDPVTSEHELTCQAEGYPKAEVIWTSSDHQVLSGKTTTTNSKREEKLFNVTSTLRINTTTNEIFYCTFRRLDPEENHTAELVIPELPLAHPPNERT

| Off-Rate Ratio to that of EM0005-90c [%] | Off-Rate Ratio to that of EM0005-87c [%] | Binder |
| --- | --- | --- |
| 107 |  | B1 |
| 97 |  | B2 |
| 102 |  | B3 |
| 120 |  | B4 |
| 100 |  | B5 |
| 90 |  | B6 |
|  | 64 | B7 |
|  | 54 | B8 |
|  | 52 | B9 |
|  | 64 | B10 |
|  | 68 | B11 |
|  | 63 | B12 |

What follows are binders tested against T1, human PD-L1/His fusion protein (assay: BLI off-rate; test group 2).
Procedure: as §1

| Off-Rate Ratio to that of EM0005-90c [%] | Off-Rate Ratio to that of EM0005-87c [%] | Binder |
| --- | --- | --- |
| 91 |  | B13 |
| 135 |  | B14 |
| 102 |  | B15 |
| 109 |  | B16 |
| 121 |  | B17 |
| 100 |  | B18 |
|  | 96 | B19 |
|  | 81 | B20 |
|  | 68 | B21 |
|  | 77 | B22 |
|  | 84 | B23 |
|  | 74 | B24 |

The binders below were run against T1, human PD-L1/His fusion protein (assay: BLI off-rate; test group 3).
Procedure: as §1

| Off-Rate Ratio to that of EM0005-87c [%] | Binder |
| --- | --- |
| 75 | B25 |
| 66 | B26 |
| 96 | B27 |
| 80 | B28 |
| 69 | B29 |
| 74 | B30 |

Each binder was assayed against T1, human PD-L1/His fusion protein (assay: BLI Octet RED96, antibody on AHC sensor, single conc. PD-L1/His; test group 1).
Procedure: as §1

| koff [s⁻¹] | Binder |
| --- | --- |
| 0.00027 | B1 |
| 0.000246 | B2 |
| 0.000259 | B3 |
| 0.000304 | B4 |
| 0.000254 | B5 |
| 0.000227 | B6 |
| 0.000937 | B7 |
| 0.000797 | B8 |
| 0.000768 | B9 |
| 0.000947 | B10 |
| 0.000998 | B11 |
| 0.000926 | B12 |

These binders were tested against T1, human PD-L1/His fusion protein (assay: BLI Octet RED96, antibody on AHC sensor, single conc. PD-L1/His; test group 2).
Procedure: as §1

| koff [s⁻¹] | Binder |
| --- | --- |
| 0.00031 | B13 |
| 0.00046 | B14 |
| 0.000349 | B15 |
| 0.000373 | B16 |
| 0.000414 | B17 |
| 0.000342 | B18 |
| 0.000994 | B19 |
| 0.000844 | B20 |
| 0.000709 | B21 |
| 0.000798 | B22 |
| 0.000878 | B23 |
| 0.000769 | B24 |

The binders below were run against T1, human PD-L1/His fusion protein (assay: BLI Octet RED96, antibody on AHC sensor, single conc. PD-L1/His; test group 3).
Procedure: as §1

| koff [s⁻¹] | Binder |
| --- | --- |
| 0.00101 | B25 |
| 0.000888 | B26 |
| 0.00129 | B27 |
| 0.00108 | B28 |
| 0.000932 | B29 |
| 0.001 | B30 |
